Experimental data reported in patent US20110059889A1 (SYNTONIX PHARMACEUTICALS, published 2011).
Bridge positions count the residues as written; N and C are the ends. Square brackets hold non-standard residues; d marks the D form. Ends that are not written are not given here. Phe(4-amidino) = N=C(N)c1ccc(C[C@H](N)C(=O)O)cc1; Phe(4-NH2) = Nc1ccc(C[C@H](N)C(=O)O)cc1; His(Me) = mono-methylated histidine; NMeL = CN[C@@H](CC(C)C)C(=O)O; Pen = CC(C)(S)[C@H](N)C(=O)O; Sar = CNCC(=O)O

B1: Peptide No. 111 (peptide)
peptide: QRF[Pen]TGHF[Sar]GLYPCNGP-NH2
modifications: disulfide 4-14; N-terminus assumed
SMILES: CC(C)C[C@@H]1NC(=O)CNC(=O)CN(C)C(=O)[C@H](Cc2ccccc2)NC(=O)[C@H](Cc2c[nH]cn2)NC(=O)CNC(=O)[C@H]([C@@H](C)O)NC(=O)[C@@H](NC(=O)[C@H](Cc2ccccc2)NC(=O)[C@H](CCCNC(=N)N)NC(=O)[C@@H](N)CCC(N)=O)C(C)(C)SSC[C@@H](C(=O)N[C@@H](CC(N)=O)C(=O)NCC(=O)N2CCC[C@H]2C(N)=O)NC(=O)[C@@H]2CCCN2C(=O)[C@H](Cc2ccc(O)cc2)NC1=O
B2: Peptide No. 235 (peptide)
peptide: RF[Pen]TGHFG[Sar][NMeL]YPC-NH2
modifications: disulfide 3-13; N-terminus assumed
SMILES: CC(C)C[C@H]1C(=O)N[C@@H](Cc2ccc(O)cc2)C(=O)N2CCC[C@H]2C(=O)N[C@H](C(N)=O)CSSC(C)(C)[C@H](NC(=O)[C@H](Cc2ccccc2)NC(=O)[C@@H](N)CCCNC(=N)N)C(=O)N[C@@H]([C@@H](C)O)C(=O)NCC(=O)N[C@@H](Cc2c[nH]cn2)C(=O)N[C@@H](Cc2ccccc2)C(=O)NCC(=O)N(C)CC(=O)N1C
B3: Peptide No. 240 (peptide)
peptide: RF[Pen]TGHF[dT][Sar][NMeL]YPC-NH2
modifications: disulfide 3-13; N-terminus assumed
SMILES: CC(C)C[C@H]1C(=O)N[C@@H](Cc2ccc(O)cc2)C(=O)N2CCC[C@H]2C(=O)N[C@H](C(N)=O)CSSC(C)(C)[C@H](NC(=O)[C@H](Cc2ccccc2)NC(=O)[C@@H](N)CCCNC(=N)N)C(=O)N[C@@H]([C@@H](C)O)C(=O)NCC(=O)N[C@@H](Cc2c[nH]cn2)C(=O)N[C@@H](Cc2ccccc2)C(=O)N[C@H]([C@H](C)O)C(=O)N(C)CC(=O)N1C
B4: Peptide No. 244 (peptide)
peptide: RF[Pen]TGHF[dE][Sar][NMeL]YPC-NH2
modifications: disulfide 3-13; N-terminus assumed
SMILES: CC(C)C[C@H]1C(=O)N[C@@H](Cc2ccc(O)cc2)C(=O)N2CCC[C@H]2C(=O)N[C@H](C(N)=O)CSSC(C)(C)[C@H](NC(=O)[C@H](Cc2ccccc2)NC(=O)[C@@H](N)CCCNC(=N)N)C(=O)N[C@@H]([C@@H](C)O)C(=O)NCC(=O)N[C@@H](Cc2c[nH]cn2)C(=O)N[C@@H](Cc2ccccc2)C(=O)N[C@H](CCC(=O)O)C(=O)N(C)CC(=O)N1C
B5: Peptide No. 241 (peptide)
peptide: RF[Pen]TGHF[dS][Sar][NMeL]YPC-NH2
modifications: disulfide 3-13; N-terminus assumed
SMILES: CC(C)C[C@H]1C(=O)N[C@@H](Cc2ccc(O)cc2)C(=O)N2CCC[C@H]2C(=O)N[C@H](C(N)=O)CSSC(C)(C)[C@H](NC(=O)[C@H](Cc2ccccc2)NC(=O)[C@@H](N)CCCNC(=N)N)C(=O)N[C@@H]([C@@H](C)O)C(=O)NCC(=O)N[C@@H](Cc2c[nH]cn2)C(=O)N[C@@H](Cc2ccccc2)C(=O)N[C@H](CO)C(=O)N(C)CC(=O)N1C
B6: Peptide No. 243 (peptide)
peptide: RF[Pen]TGHF[dN][Sar][NMeL]YPC-NH2
modifications: disulfide 3-13; N-terminus assumed
SMILES: CC(C)C[C@H]1C(=O)N[C@@H](Cc2ccc(O)cc2)C(=O)N2CCC[C@H]2C(=O)N[C@H](C(N)=O)CSSC(C)(C)[C@H](NC(=O)[C@H](Cc2ccccc2)NC(=O)[C@@H](N)CCCNC(=N)N)C(=O)N[C@@H]([C@@H](C)O)C(=O)NCC(=O)N[C@@H](Cc2c[nH]cn2)C(=O)N[C@@H](Cc2ccccc2)C(=O)N[C@H](CC(N)=O)C(=O)N(C)CC(=O)N1C
B7: Peptide No. 219 (peptide)
peptide: RF[Pen]TGHF[dL][Sar][NMeL]YPC-NH2
modifications: disulfide 3-13; N-terminus assumed
SMILES: CC(C)C[C@H]1NC(=O)[C@H](Cc2ccccc2)NC(=O)[C@H](Cc2c[nH]cn2)NC(=O)CNC(=O)[C@H]([C@@H](C)O)NC(=O)[C@@H](NC(=O)[C@H](Cc2ccccc2)NC(=O)[C@@H](N)CCCNC(=N)N)C(C)(C)SSC[C@@H](C(N)=O)NC(=O)[C@@H]2CCCN2C(=O)[C@H](Cc2ccc(O)cc2)NC(=O)[C@H](CC(C)C)N(C)C(=O)CN(C)C1=O
B8: Peptide No. 256 (peptide)
peptide: RF[Pen]TGRFG[Sar][NMeL]YPC-NH2
modifications: disulfide 3-13; N-terminus assumed
SMILES: CC(C)C[C@H]1C(=O)N[C@@H](Cc2ccc(O)cc2)C(=O)N2CCC[C@H]2C(=O)N[C@H](C(N)=O)CSSC(C)(C)[C@H](NC(=O)[C@H](Cc2ccccc2)NC(=O)[C@@H](N)CCCNC(=N)N)C(=O)N[C@@H]([C@@H](C)O)C(=O)NCC(=O)N[C@@H](CCCNC(=N)N)C(=O)N[C@@H](Cc2ccccc2)C(=O)NCC(=O)N(C)CC(=O)N1C
B9: Peptide No. 257 (peptide)
peptide: RF[Pen]TG[Phe(4-amidino)]FG[Sar][NMeL]YPC-NH2
modifications: disulfide 3-13; N-terminus assumed
SMILES: CC(C)C[C@H]1C(=O)N[C@@H](Cc2ccc(O)cc2)C(=O)N2CCC[C@H]2C(=O)N[C@H](C(N)=O)CSSC(C)(C)[C@H](NC(=O)[C@H](Cc2ccccc2)NC(=O)[C@@H](N)CCCNC(=N)N)C(=O)N[C@@H]([C@@H](C)O)C(=O)NCC(=O)N[C@@H](Cc2ccc(C(=N)N)cc2)C(=O)N[C@@H](Cc2ccccc2)C(=O)NCC(=O)N(C)CC(=O)N1C
B10: Peptide No. 255 (peptide)
peptide: RF[Pen]TGKFG[Sar][NMeL]YPC-NH2
modifications: disulfide 3-13; N-terminus assumed
SMILES: CC(C)C[C@H]1C(=O)N[C@@H](Cc2ccc(O)cc2)C(=O)N2CCC[C@H]2C(=O)N[C@H](C(N)=O)CSSC(C)(C)[C@H](NC(=O)[C@H](Cc2ccccc2)NC(=O)[C@@H](N)CCCNC(=N)N)C(=O)N[C@@H]([C@@H](C)O)C(=O)NCC(=O)N[C@@H](CCCCN)C(=O)N[C@@H](Cc2ccccc2)C(=O)NCC(=O)N(C)CC(=O)N1C
B11: Peptide No. 258 (peptide)
peptide: RF[Pen]TG[Phe(4-NH2)]FG[Sar][NMeL]YPC-NH2
modifications: disulfide 3-13; N-terminus assumed
SMILES: CC(C)C[C@H]1C(=O)N[C@@H](Cc2ccc(O)cc2)C(=O)N2CCC[C@H]2C(=O)N[C@H](C(N)=O)CSSC(C)(C)[C@H](NC(=O)[C@H](Cc2ccccc2)NC(=O)[C@@H](N)CCCNC(=N)N)C(=O)N[C@@H]([C@@H](C)O)C(=O)NCC(=O)N[C@@H](Cc2ccc(N)cc2)C(=O)N[C@@H](Cc2ccccc2)C(=O)NCC(=O)N(C)CC(=O)N1C
B12: Peptide No. 112 (peptide)
peptide: QRF[Pen]TGHFG[Sar]LYPCNGP-NH2
modifications: disulfide 4-14; N-terminus assumed
SMILES: CC(C)C[C@@H]1NC(=O)CN(C)C(=O)CNC(=O)[C@H](Cc2ccccc2)NC(=O)[C@H](Cc2c[nH]cn2)NC(=O)CNC(=O)[C@H]([C@@H](C)O)NC(=O)[C@@H](NC(=O)[C@H](Cc2ccccc2)NC(=O)[C@H](CCCNC(=N)N)NC(=O)[C@@H](N)CCC(N)=O)C(C)(C)SSC[C@@H](C(=O)N[C@@H](CC(N)=O)C(=O)NCC(=O)N2CCC[C@H]2C(N)=O)NC(=O)[C@@H]2CCCN2C(=O)[C@H](Cc2ccc(O)cc2)NC1=O
B13: Peptide No. 218 (peptide)
peptide: RF[Pen]TGHF[dV][Sar][NMeL]YPC-NH2
modifications: disulfide 3-13; N-terminus assumed
SMILES: CC(C)C[C@H]1C(=O)N[C@@H](Cc2ccc(O)cc2)C(=O)N2CCC[C@H]2C(=O)N[C@H](C(N)=O)CSSC(C)(C)[C@H](NC(=O)[C@H](Cc2ccccc2)NC(=O)[C@@H](N)CCCNC(=N)N)C(=O)N[C@@H]([C@@H](C)O)C(=O)NCC(=O)N[C@@H](Cc2c[nH]cn2)C(=O)N[C@@H](Cc2ccccc2)C(=O)N[C@H](C(C)C)C(=O)N(C)CC(=O)N1C

Target: T1, soluble human FcRn (shFcRn) (human, UniProt P55899 24-297; P61769 21-119)
T1 construct: Biotinylated for the ELISA, amine-coupled to a CM5 chip for SPR; also called biotinylated shFcRn
Experiment: SPR pH 6
Procedure: (§1) The following steps were performed to cross-link soluble human or cynomolgus FcRn to the dextran surface of a CM5 sensor chip (Biacore AB, Uppsala, Sweden) by an amine coupling reaction involving 1-ethyl-(3-dimethylaminopropyl)-carbodiimide hydrochloride (EDC) (Biacore AB, Uppsala, Sweden) and N-hydroxysuccinimide (NHS) (Biacore AB, Uppsala, Sweden) as recommended by Biacore (BIAapplications Handbook, version AB, section 4.2, Biacore AB, Uppsala, Sweden). […] Residual sites on the FcRn flow cell were blocked with 1 M ethanolamine hydrochloride pH 8.5 (Biacore AB, Uppsala, Sweden). A control flow cell was blocked with ethanolamine for reference subtraction. For analysis of the monomeric peptides, FcRn was coated to a final density of 4000-5000 response units (RU). For analysis of the peptide dimers, FcRn was coated to a density of 2000-2500 RU. All SPR measurements were performed using a BIACORE 3000 Instrument (Biacore AB Uppsala, Sweden). For measurements done at either pH 6 or pH 7.4, experiments were performed in 50 mM phosphate, 100 mM sodium chloride, 0.01% surfactant P20 (Biacore AB, Uppsala, Sweden).
(§2) Ten, 2-fold dilutions of the peptide were injected over the FcRn-CM5 chip at a rate of 20 μl/min for 2 min. The peptide was dissociated from the chip for 2.5 minutes with buffer. Any remaining peptide was removed from the chip with a 30 second injection of HBS-P buffer (Biacore AB, Uppsala, Sweden) at a rate of 30 μl/min. Sensorgrams were generated and analyzed using BiaEval software version 3.1 (Biacore AB, Uppsala, Sweden). The equilibrium RU observed for each injection was plotted against concentration. The equilibrium KD values were derived by analysis of the plots using the steady state affinity model included in the BiaEval software.

Kd | Binder
2000 nM | B1
31 nM | B2

Target: T1, soluble human FcRn (shFcRn)
Experiment: SPR pH 6
Remark: another data set of the same source
Procedure: as §1, §2

Kd | Binder
31 nM | B2
4800 nM | B3
580 nM | B4
1100 nM | B5
2100 nM | B6
470 nM | B7

Target: T1, soluble human FcRn (shFcRn)
Experiment: SPR pH 6
Remark: another data set of the same source
Procedure: as §1, §2

Kd | Binder
190 nM | RF[Pen]TG[His(Me)2]FGGLYPC-NH2 (disulfide 3-13) [Peptide No. 260]
140 nM | RF[Pen]TG[His(Me)]FGGLYPC-NH2 (disulfide 3-13) [Peptide No. 259]
500 nM | B8
74 nM | B9
1300 nM | B10

Target: T1, soluble human FcRn (shFcRn)
Experiment: SPR pH 7.4
Procedure: as §1, §2

Kd | Binder
460 nM | RF[Pen]TG[His(Me)2]FGGLYPC-NH2 (disulfide 3-13) [Peptide No. 260]
380 nM | RF[Pen]TG[His(Me)]FGGLYPC-NH2 (disulfide 3-13) [Peptide No. 259]
500 nM | B8
73 nM | B9
1100 nM | B10
1100 nM | B11

Target: T1, soluble human FcRn (shFcRn)
Experiment: IgG competition ELISA
Procedure: (§3) The wells were coated with 100 μl/well of 1 μg/ml biotinylated-shFcRn in Buffer A. The plate was sealed and incubated at 37° C. for 2 hours. Afterwards, the plate was washed with 200 μl/well of Buffer B (Buffer B: 100 mM MES pH 6, 150 mM NaCl, 0.5% BSA IgG-free (Jackson ImmunoResearch, West Grove, Pa.), 0.05% Tween-20). […] To allow for mixing, the plate was rocked for 2 minutes, sealed and incubated at 37° C. for 2 hours. […] The plate was covered, incubated for 30 minutes at room temperature and washed 4 times with 200 μl/well of ice-cold buffer B. SureBlue TMB substrate solution (100 μl/well, KPL, Gaithersburg, Md.) was added and the plate was allowed to incubate at room temperature until color developed, which took 5 to 10 minutes. Once color developed, 100 μl/well of TMB stop solution (KPL, Gaithersburg, Md.) was added and the absorbance was measured at 450 nm. The data was plotted as absorbance vs. peptide concentration to derive the inhibitory concentration 50% (IC₅₀) values.

IC50 | Binder
900 nM | B12

Target: T1, soluble human FcRn (shFcRn)
Experiment: IgG competition ELISA
Remark: another data set of the same source
Procedure: as §3

IC50 | Binder
> 50000 nM | B13
71000 nM | B3
6400 nM | B4
23000 nM | B5
29000 nM | B6
4000 nM | B7

Target: T1, soluble human FcRn (shFcRn)
Experiment: IgG competition ELISA
Remark: another data set of the same source
Procedure: as §3

IC50 | Binder
> 125000 nM | QRFCTGHFGGLXPCNGP (Pen 4; 2-pyridylAla 12 (printed 2-pvridylAla); disulfide 4-14; C-terminal amide) [Peptide No. 66]

Target: T1, soluble human FcRn (shFcRn)
Experiment: IgG competition ELISA
Remark: another data set of the same source
Procedure: as §3

IC50 | Binder
4400 nM | RF[Pen]TG[His(Me)2]FGGLYPC-NH2 (disulfide 3-13) [Peptide No. 260]
2900 nM | RF[Pen]TG[His(Me)]FGGLYPC-NH2 (disulfide 3-13) [Peptide No. 259]
5500 nM | B8
40000 nM | B10
4600 nM | B11
